Test results: patent US20260266848A1, “COMPOSITIONS AND METHODS FOR DIAGNOSING AND TREATING DYSTONIA” (Duke University, priority 2023, published 2026)

B1: Dpp3 (protein, UniProt Q99KK7 2-738, looked up)
Dipeptidyl peptidase 3: ADTQYILPNDIGVSSLDCREAFRLLSPTERLYAHHLSRAAWYGGLAVLLQTSPEAPYIYALLSRLFRAQDPDQLRQHALAEGLTEEEYQAFLVYAAGVYSNMGNYKSFGDTKFVPNLPKDKLGRVILGSKAAQQRPEEVRDLWQTCGDLMFSLEPRLRHLGLGKEGVTTYFSGDCTMEDAKLAQDFLDSQNLSAYNTRLFKVVGQEGKSHYEVRLASVLNTDPALDSELTSKLKRYEFQGNHFQVTRGDYAPILQKVVEHLEKAKAYAANSHQEQMLAQYVESFTQGSIEAHKRGSRFWIQDKGPIVESYIGFIESYRDPFGSRGEFEGFVAMVNKAMSAKFERLVASAEQLLKELPWPLAFEKDKFLTPDFTSLDVLTFAGSGIPAGINIPNYDDLRQTEGFKNVSLGNVLAVAYAAKREKLTFLEEEDKDLYIRWKGPSFDVQVGLHELLGHGSGKLFVQDEKGAFNFDKETVINPETGEQIQSWYRSGETWDSKFSTIASSYEECRAESVGLYLCLNPQVLEIFGFEGADAEDVIYVNWLNMVRAGLLALEFYTPEAANWRQAHMQARFVILRVLLEAGEGLVTVTPTTGSDGRPDARVRLDRSKIRSVGRPALERFLRRLQVLKSTGDVVAGRALYEGYAAVTDAPPECFLTLRDTVLLRKESRKLIVQPNTRLEGSEVQLVEYEASAAGLIRSFCERFPEDGPELEEVLIQLAAADARFWRNQAQEAPPGQA
B2: Ap1b1 (protein, UniProt O35643 1-943, looked up)
AP-1 complex subunit beta-1: MTDSKYFTTTKKGEIFELKAELNSDKKEKKKEAVKKVIASMTVGKDVSALFPDVVNCMQTDNLELKKLVYLYLMNYAKSQPDMAIMAVNTFVKDCEDPNPLIRALAVRTMGCIRVDKITEYLCEPLRKCLKDEDPYVRKTAAVCVAKLHDINAQLVEDQGFLDTLKDLISDSNPMVVANAVAALSEIAESHPSSNLLDLNPQSINKLLTALNECTEWGQIFILDCLANYMPKDDREAQSICERVTPRLSHANSAVVLSAVKVLMKFMEMLSKDLDYYATLLKKLAPPLVTLLSAEPELQYVALRNINLIVQKRPEILKHEMKVFFVKYNDPIYVKLEKLDIMIRLASQANIAQVLAELKEYATEVDVDFVRKAVRAIGRCAIKVEQSAERCVSTLLDLIQTKVNYVVQEAIVVIKDIFRKYPNKYESVIATLCENLDSLDEPEARAAMIWIVGEYAERIDNADELLESFLEGFHDESTQVQLQLLTAIVKLFLKKPTETQELVQQVLSLATQDSDNPDLRDRGYIYWRLLSTDPVAAKEVVLAEKPLISEETDLIEPTLLDELICYIGTLASVYHKPPNAFVEGGRGVVHKSLPPRTASSESTESPETAPAGAPAGDQPDVIPAQGDLLGDLLNLDLGPPVSGPPLAASSVQMGAVDLLGGGLDSLIGDSNFGAPSASVAAAPAPARLGAPISSGLSDLFDLTSGVGTLSGSYVAPKAVWLPAMKAKGLEISGTFTRQAGSISMDLQLTNKALQVMTDFAIQFNRNSFGLAPAAPLQVHVPLSPNQTVEISLPLNTVGSVLKMEPLNNLQVAVKNNIDVFYFSTLYPLHVLFVEDGKMDRQMFLATWKDIANENEAQFQIRDCPLNTEAASNKLQSSNIFTVAKRNVEGQDMLYQSLKLTNGIWVLAELRIQPGNPSFTLSLKCRAPEVSQHVYQAYETILKN
B3: Pbdc1 (protein, UniProt Q9D0B6 1-198, looked up)
Protein PBDC1: MDAAGESEEPVSGEALSIAHALSHPPESYGNDPDIEMAWAIRAMQHAEVYYKLISSVDPQFLKLTKVDDQIYSEFREIFETLRVDVLDPEELKSESAKEKWRPFCLKFEGIVEDYNYGTLLRLDCSQGYTEENTIFAPRIQFFAIEIARNREGYNKAVSVSIQDKEGEEGAGNKEEAAEKGADSGGEKEEGANREGEK
B4: Rab3gap2 (protein, UniProt Q8BMG7 1-1366, looked up)
Rab3 GTPase-activating …: MACSIVQFCSFQDLQSARDFLFPHLREETPGALKRDPSKTSSWEDDSWGAWEETEPREPEEEGNTSKTQKNSWLQECVLSLSPTSDLMVIAREQKAAFLVRKWKHGDKGKEEMQFAVGWSGSVSAEEGEYVTSALCIPLASQKRSSTGRPDWTCIVVGFTSGYVRFYTEGVLLLAQLLNEDKVLQLKCRTYEIPRHPGVTEQNEELSILYPAAIVTIDGFSLFQSLRACRNQVAKAAASGNENIQPPPLAYKKWGLQDIDTIIDHASVGIMTLSPFDQMKTASNIGGFNAAIKNSPPAMSQYITVGSSPFTGFFYALEGSTQPLLSHVALAVASKLTSALFSAASGWLGWKSKHEEDTVQKQKPKMEPATPLAVRFGLPDSRRHGESICLSPCNTLAAVTDDFGRVILLDVARGIAIRMWKGYRDAQVGWIQIVEDLHERVPEKGGFSPFGNTQGPSRVAQFLVIYAPRRGILEVWNTQQGPRVGAFNVGKHCRLLYPGYKIMGLNNVTSQSWQPQTYQICLVDPVSASVKAVNVPFHLALSDKKSERAKDLHLVKKLSALLRAKSPRPDSFETEIKELILDIKYPATKKQALESILASDRLSFSCLRNVTQTLMDTLKNQELESVDEGLLQFCASKLKLLHLYESVSQLNTLDFHSDTPFSDNDLAVLLRLDDKELLKLRALLEKYKQENTKATVRFSEDADRVLPVKTFLEYLEYEKDALSIRKIGEEECVALGSFFFWKCLHGKSSTEEMCHSLESAGLSPQQLLSLLLSVWLSKEKDILDKPQSVCCLHTMLSLLSKMKVAIDETWDSQSVSPWWQQMRMACIQSENSGAALLSAHVGHSVAAQMSSGATDKKFSQMELDADAEALTDSWEALSLDTEYWKLLLRQLEDCLILQTLLHSKLSPPAAKAPSLQSEPLPRLSVKKLLEGGKGGIADSVAKWIFKQDLSPELLKCANKERDVENPDEPREDLLHLAYEQFPCSLELDVLHAHCCWEYVVQWNKDPEEARFLVRSIEHLKQILNPHVQNGIALMMWNTFLVKRFSAATYLMDKVGKSPKDRLCRRDVGMSDTALTSFLGSCLELLQTSLEADISRDEVQVPVLDTEDAWLSVEGPISIVELALEQKPIHYPLVEHHSVLCSILYASMRFSLKSVKPLALFDSKGKNAFFKDLTSIQLLPSGEMDPNFISVRQQFLLKVVSAAVQAQHSKDKDPSAEAANTHWKDLNWPGLAVDLAHHLQVSDDVIRRHYVGELYSHGADLLGEEAIFQVQDKEVLASQLLVLTGQRLAHALFHTQTKEGMELLARLPPTLCTWLKAMNPQDLQNTGVPIAATAKLVHKVMELLPEKHGQYSLALHLIDAVEAMATL
B5: Hnrnpl (protein, UniProt P14866 1-589, looked up)
Heterogeneous nuclear …: MSRRLLPRAEKRRRRLEQRQQPDEQRRRSGAMVKMAAAGGGGGGGRYYGGGSEGGRAPKRLKTDNAGDQHGGGGGGGGGAGAAGGGGGGENYDDPHKTPASPVVHIRGLIDGVVEADLVEALQEFGPISYVVVMPKKRQALVEFEDVLGACNAVNYAADNQIYIAGHPAFVNYSTSQKISRPGDSDDSRSVNSVLLFTILNPIYSITTDVLYTICNPCGPVQRIVIFRKNGVQAMVEFDSVQSAQRAKASLNGADIYSGCCTLKIEYAKPTRLNVFKNDQDTWDYTNPNLSGQGDPGSNPNKRQRQPPLLGDHPAEYGGPHGGYHSHYHDEGYGPPPPHYEGRRMGPPVGGHRRGPSRYGPQYGHPPPPPPPPEYGPHADSPVLMVYGLDQSKMNCDRVFNVFCLYGNVEKVKFMKSKPGAAMVEMADGYAVDRAITHLNNNFMFGQKLNVCVSKQPAIMPGQSYGLEDGSCSYKDFSESRNNRFSTPEQAAKNRIQHPSNVLHFFNAPLEVTEENFFEICDELGVKRPSSVKVFSGKSERSSSGLLEWESKSDALETLGFLNHYQMKNPNGPYPYTLKLCFSTAQHAS
B6: Copb2 (protein, UniProt O55029 1-905, looked up)
Coatomer subunit beta': MPLRLDIKRKLTARSDRVKSVDLHPTEPWMLASLYNGSVCVWNHETQTLVKTFEVCDLPVRAAKFVARKNWVVTGADDMQIRVFNYNTLERVHMFEAHSDYIRCIAVHPTQPFILTSSDDMLIKLWDWDKKWSCSQVFEGHTHYVMQIVINPKDNNQFASASLDRTIKVWQLGSSSPNFTLEGHEKGVNCIDYYSGGDKPYLISGADDRLVKIWDYQNKTCVQTLEGHAQNVSCASFHPELPIIITGSEDGTVRIWHSSTYRLESTLNYGMERVWCVASLRGSNNVALGYDEGSIIVKLGREEPAMSMDANGKIIWAKHSEVQQANLKAMGDTEIKDGERLPLAVKDMGSCEIYPQTIQHNPNGRFVVVCGDGEYIIYTAMALRNKSFGSAQEFAWAHDSSEYAIRESNSIVKIFKNFKEKKSFKPDFGAESIYGGFLLGVRSVNGLAFYDWENTELIRRIEIQPKHIFWSDSGELVCIATEESFFILKYLSEKVLAAQETHEGVTEDGIEDAFEVLGEIQEIVKTGLWVGDCFIYTSSVNRLNYYVGGEIVTIAHLDRTMYLLGYIPKDNRLYLGDKELNIVSYSLLVSVLEYQTAVMRRDFSMADKVLPTIPKEQRTRVAHFLEKQGFKQQALTVSTDPEHRFELALQLGELKIAYQLAVEAESEQKWKQLAELAISKCQFSLAQECLHHAQDYGGLLLLATASGNASMVNKLAEGAERDGKNNVAFMSYFLQGKLDACLELLIRTGRLPEAAFLARTYLPSQVSRVVKLWRENLSKVNQKAAESLADPTEYENLFPGLKEAFVVEEWVKETHADLWPAKQYPLVTPNEERNVMEEAKGFQPSRPTAQQEPDGKPASSPVIMASQTTHKEEKSLLELEVDLDNLELEDIDTTDINLDEDILDD

Legend:
DYT-TOR1A MEF EVs = experiment: Quantitative LC-MS/MS proteomics of EVs from drug-treated DYT-TOR1A MEF cultures (ritonavir, salubrinal); assay type: cell-based, mouse; set-up: key to RTV Corrective Direction / RTV Corrective Direction, Grwd1 / RTV Corrective Direction, Srrm2 / RTV Corrective Direction, Rbm17 / RTV Corrective Direction, Dcaf8 / RTV Corrective Direction, Edil3 / RTV Corrective Direction, Timp3 / RTV Corrective Direction, Heatr3 / RTV Corrective Direction, Brd4 / RTV Corrective Direction, P3h4 / RTV Corrective Direction, Pacsin3 / RTV Corrective Direction, Naa50 / RTV Corrective Direction, Lpar6 / RTV Corrective Direction, Ndrg1 / RTV Corrective Direction, Kntc1 / RTV Corrective Direction, Cdk11b / RTV Corrective Direction, Sumo1 / RTV Corrective Direction, Lsm4 / RTV Corrective Direction, Hmga2 / RTV Corrective Direction, Cstf1 / RTV Corrective Direction, Tes / RTV Corrective Direction, Sbno1 / RTV Corrective Direction, Unc119b / RTV Corrective Direction, Cfdp1 / RTV Corrective Direction, Sec61b: YES = protein abundance effect opposite to DYT/WT; conditions: EV protein abundance; for RTV Corrective Direction: DYT + RTV (ritonavir) vs DYT, direction compared with DYT/WT; for DYT + RTV/DYT Cohen's d: ritonavir (RTV)-treated DYT vs DYT
WT MEF EVs = experiment: Quantitative LC-MS/MS proteomics of EVs from ISRIB-treated WT MEF cultures; assay type: cell-based, mouse; set-up: key to ISRIB and DYT Parallel Direction / ISRIB and DYT Parallel Direction, Ctdsp1 / ISRIB and DYT Parallel Direction, Pcdh19 / ISRIB and DYT Parallel Direction, Tspan7 / ISRIB and DYT Parallel Direction, Myo1e / ISRIB and DYT Parallel Direction, Plpp3 / ISRIB and DYT Parallel Direction, Sh3bp4 / ISRIB and DYT Parallel Direction, Dnajc7 / ISRIB and DYT Parallel Direction, Drg1 / ISRIB and DYT Parallel Direction, Maea: YES = protein abundance effect similar to DYT/WT; conditions: EV protein abundance; for WT + ISRIB/WT Cohen's d: ISRIB-treated WT vs WT; for ISRIB and DYT Parallel Direction: WT + ISRIB vs WT, direction compared with DYT/WT

Row | Molecule | RTV Corrective Direction (DYT-TOR1A MEF EVs) | DYT + RTV/DYT Cohen's d (DYT-TOR1A MEF EVs) | WT + ISRIB/WT Cohen's d (WT MEF EVs) | ISRIB and DYT Parallel Direction (WT MEF EVs)
1 | B1 | YES | 5.13 | −1.56 | YES
2 | B2 | YES | 4.53 | −1.08 | YES
3 | B3 | YES | 3.36 | −1.06 | YES
4 | B4 | YES | 4.70 | −0.43 | YES
5 | B5 | YES | 6.17 | −0.32 | YES
6 | B6 | YES | 6.13 | −1.11 | YES
